From IntAct's records for PubMed 24500646

B1: DDB1- and CUL4-associated factor 8 (Homo sapiens), Q5TAQ9 (parent)
chain: MSSKGSSTDGRTDLANGSLSSSPEEMSGAEEGRETSSGIEVEASDLSLSLTGDDGGPNRTSTESRGTDTESSGEDKDSDSMEDTGHYSINDENRVHDRSEEEEEEEEEEEEEQPRRRVQRKRANRDQDSSDDERALEDWVSSETSALPRPRWQALPALRERELGSSARFVYEACGARVFVQRFRLQHGLEGHTGCVNTLHFNQRGTWLASGSDDLKVVVWDWVRRQPVLDFESGHKSNVFQAKFLPNSGDSTLAMCARDGQVRVAELSATQCCKNTKRVAQHKGASHKLALEPDSPCTFLSAGEDAVVFTIDLRQDRPASKLVVTKEKEKKVGLYTIYVNPANTHQFAVGGRDQFVRIYDQRKIDENENNGVLKKFCPHHLVNSESKANITCLVYSHDGTELLASYNDEDIYLFNSSHSDGAQYVKRYKGHRNNATVKGVNFYGPKSEFVVSGSDCGHIFLWEKSSCQIIQFMEGDKGGVVNCLEPHPHLPVLATSGLDHDVKIWAPTAEASTELTGLKDVIKKNKRERDEDSLHQTDLFDSHMLWFLMHHLRQRRHHRRWREPGVGATDADSDESPSSSDTSDEEEGPDRVQCMPS

Variants of: B1
Conditions: with ddb1_human DDB1, Q16531
ddb1_human DDB1, Q16531, sequence (Q16531 whole entry): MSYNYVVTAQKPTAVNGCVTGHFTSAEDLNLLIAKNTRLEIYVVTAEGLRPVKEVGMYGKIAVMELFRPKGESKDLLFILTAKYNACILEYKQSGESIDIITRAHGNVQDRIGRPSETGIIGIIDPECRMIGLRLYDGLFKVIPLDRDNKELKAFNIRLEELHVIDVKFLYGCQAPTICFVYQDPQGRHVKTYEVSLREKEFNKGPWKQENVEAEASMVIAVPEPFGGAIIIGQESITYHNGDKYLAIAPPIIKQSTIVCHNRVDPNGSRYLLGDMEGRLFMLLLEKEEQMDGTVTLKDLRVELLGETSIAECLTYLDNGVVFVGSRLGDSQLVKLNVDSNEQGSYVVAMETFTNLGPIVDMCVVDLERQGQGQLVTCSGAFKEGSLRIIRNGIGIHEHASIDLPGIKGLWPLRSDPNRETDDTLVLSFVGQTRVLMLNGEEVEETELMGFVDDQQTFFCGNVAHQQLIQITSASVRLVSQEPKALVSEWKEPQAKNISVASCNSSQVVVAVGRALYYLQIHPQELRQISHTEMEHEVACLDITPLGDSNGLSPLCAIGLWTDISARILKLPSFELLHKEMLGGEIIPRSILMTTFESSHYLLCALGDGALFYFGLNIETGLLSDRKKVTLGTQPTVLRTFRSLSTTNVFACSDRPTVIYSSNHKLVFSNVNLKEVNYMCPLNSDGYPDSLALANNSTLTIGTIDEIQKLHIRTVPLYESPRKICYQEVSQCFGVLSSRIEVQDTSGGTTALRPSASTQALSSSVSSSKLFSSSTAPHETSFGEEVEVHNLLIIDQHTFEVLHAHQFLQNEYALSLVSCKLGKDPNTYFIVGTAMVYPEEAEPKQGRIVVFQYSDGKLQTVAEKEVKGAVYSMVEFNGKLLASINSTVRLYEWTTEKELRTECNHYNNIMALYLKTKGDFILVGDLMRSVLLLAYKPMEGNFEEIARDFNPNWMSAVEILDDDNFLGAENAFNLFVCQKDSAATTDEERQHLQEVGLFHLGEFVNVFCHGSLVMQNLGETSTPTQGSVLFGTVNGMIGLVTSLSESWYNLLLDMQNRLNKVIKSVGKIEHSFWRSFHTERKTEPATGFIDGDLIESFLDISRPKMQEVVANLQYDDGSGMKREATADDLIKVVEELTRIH

Row | effect of a mutation on the interaction | Variant
1 | decreasing interaction strength | R317C
2 | decreasing interaction strength | R314H
